{"source": "patent US20230331827A1", "about": "“POTASSIUM CHANNEL INHIBITORS” (priority 2017, published 2023)", "molecules": {"B1": {"name": "KB_A12_KTX: kaliotoxin in VL CDR2 of KB_A12, IgG1 (antibody)", "VH": "EVQLVESGGGLVRPGGSLRLSCAASGFTFSSYAMSWVRQAPGKGLEWVSAISGSGGSTYYADSVKGRFTISRDNTKNSLYLQMTSLRADDTAFYYCVKDFGPGYGTGWFDYWGPGTLVTVSS", "VL": "QSVLTQPPSVSEAPRQRVTITCSGSSSNIGNNAVNWYQQLPGKAPKLLIYAAGRGVEINVKCSGSPQCLKPCKDAGMRFGKCMNRKCHCTPKANSGVSDRFSAAKSGTSASLAINGLRSEDEADYYCAAWDDSLNGYVFGTGTKLTVLGQP"}}, "type_in_all_cases": "cell-based", "key": {"human Kv1.1 (huKv1.1)": {"target": "T1, human Kv1.1 (huKv1.1) (Homo sapiens, UniProt Q09470)", "T1 construct": "expressed in transfected cells; host or cells: Freestyle CHO-S", "T1 sequence (Q09470 whole entry)": "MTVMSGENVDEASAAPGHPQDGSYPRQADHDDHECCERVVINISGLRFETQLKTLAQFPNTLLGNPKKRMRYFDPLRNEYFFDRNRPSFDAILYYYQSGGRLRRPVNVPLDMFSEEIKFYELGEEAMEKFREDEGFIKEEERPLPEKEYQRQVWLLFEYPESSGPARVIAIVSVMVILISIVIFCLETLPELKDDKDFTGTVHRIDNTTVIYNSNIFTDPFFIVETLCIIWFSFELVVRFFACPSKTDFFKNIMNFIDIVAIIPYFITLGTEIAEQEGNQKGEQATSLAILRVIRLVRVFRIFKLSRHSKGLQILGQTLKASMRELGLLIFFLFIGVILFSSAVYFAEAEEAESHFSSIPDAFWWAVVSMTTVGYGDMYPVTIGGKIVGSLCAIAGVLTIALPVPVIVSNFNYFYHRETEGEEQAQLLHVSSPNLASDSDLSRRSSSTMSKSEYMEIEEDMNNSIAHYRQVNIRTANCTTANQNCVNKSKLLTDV", "assay": "QPatch automated patch-clamp, CHO-S cells expressing huKv1.1 (Examples 20-21)", "settings": "four-point curves of FIG. 33, Table E20", "method": "1. The effect of these KnotBodies on cells expressing human Kv1.1 (huKv1.1) and Kv1.3 (huKv1.3) channels was assessed using QPatch automated patch-clamp platform (Sophion).\nTo generate huKv1.1 expressing cells, Freestyle CHO-S cells (Cat. no. R80007, Life Technologies, California, USA) were transfected with pINT50-Tr plasmid encoding huKv1.1 gene using the MaxCyte STX (MaxCyte) transfection system. In pINT50-Tr plasmid, huKv1.1 gene is under the control of a CMV promoter. 64 µg of the plasmid DNA were added to 400 µl of Freestyle CHO-S cells (at a density of 1 × 10^8 cells/ml) in Electroporation Buffer (GE Healthcare Life Sciences, Cat. no. EPB1) in an OC-400 processing assembly (MaxCyte). Following electroporation, the cells were transferred to a well of a 24-well plate containing 200 U/ml DNAse I (Sigma, D4263) and incubated for 20 minutes at 37° C. and 5% CO2. The cells were then transferred into a 100 ml shaker flask containing 20 ml of CD Opticho Media (Thermo Fisher Scientific, Cat.No 12681-011,) supplemented with 8 mM L-Glut (Thermo Fisher Scientific, cat. no. 25030-024). The cells were incubated for 24 hours at 37° C. and 5% CO2 (and 75% humidity and shaking at 800 rpm) prior to testing using automated patch clamp electrophysiology.\n(§1) For the testing of Kv1.1 and Kv1.3, CHO-S expressing huKv1.1 (described above) or CHO cells stably expressing huKv1.3 (Charles River Lab) were analysed using the QPatch electrophysiology assay in the presence or absence of the KnotBody fusions. Internal and external physiological solutions were freshly prepared prior to the assay. The extracellular solution contained 145 mM NaCl, 4 mM KC1, 2 mM CaC12, 1 mM MgC12, 10 mM HEPES and 10 mM glucose; the pH was adjusted to 7.4 with NaOH; the osmolarity was ~ 305 mOsm/L. The intracellular solution contained: KF (120 mM), KC1 (20 mM), HEPES (10 mM) EGTA (10 mM); the pH was adjusted to 7.2 with KOH; osmolarity was ~ 300 mOsm/L.\n(§2) A series of depolarising voltage (channel activating) pulses were used to monitor the channel currents upon adding control (extracellular solution) to define a control baseline of current activity. To these measured control currents four, ascending concentrations of KnotBodies (including previously described KB_A12_ShK and KB_A12_KTX described in Example 8) or parental antibody isotypes (control molecules) were applied to the external bathing solution. KnotBodies KB_A12 and KB_A07 (EETI-II fusions) were used as isotype controls for the testing. From a holding voltage of -80 mV a depolarising, activating voltage pulses of +30 were applied for 300 ms, every 10 seconds. The elicited, maximum outward current values measured during the activating step for each solution exchange period, averaged (n = 3 - 6 for each concentration applied) and plotted as concentration-response curves (see FIG. 33). From these concentration-response curves IC50 values were calculated (see Table E20).\n(§3) For the testing of Kv1.1 and Kv1.3, CHO-S expressing huKv1.1 (see Example 20 and below) or CHO cells stably expressing huKv1.3 (Charles River Lab) were analysed using the QPatch electrophysiology assay in the presence or absence of the KnotBody fusions - see details in Examples 19 and 20.\nIn addition to the CHO-S transiently expressing huKv1.1 (described in Example 20), CHO-S cells with poly-clonal stable expression of huKv1.1 cells were also made and used in the QPatch electrophysiology assay. To generate the polyclonal stable huKv1.1 cells from the transiently expressing cells described in Example 20, after a 24 hour incubation period the selection antibiotic Puromycin (catalogue no. A1 1138-03, Life Technologies, California, USA) was added to culture media. Then, for the first 14 days puromycin was at 10 µg ml-1 media; at days 15-28 puromycin was at 20 µg ml-1 media. Cell cultures were seeded at 2.5 x 10^5 cells ml^-1 into fresh culture media and puromycin twice per week through this selection growth period. […]"}, "huKv1.3": {"target": "T2, huKv1.3 (Homo sapiens, UniProt P22001)", "T2 construct": "host or cells: CHO", "T2 sequence (P22001 whole entry)": "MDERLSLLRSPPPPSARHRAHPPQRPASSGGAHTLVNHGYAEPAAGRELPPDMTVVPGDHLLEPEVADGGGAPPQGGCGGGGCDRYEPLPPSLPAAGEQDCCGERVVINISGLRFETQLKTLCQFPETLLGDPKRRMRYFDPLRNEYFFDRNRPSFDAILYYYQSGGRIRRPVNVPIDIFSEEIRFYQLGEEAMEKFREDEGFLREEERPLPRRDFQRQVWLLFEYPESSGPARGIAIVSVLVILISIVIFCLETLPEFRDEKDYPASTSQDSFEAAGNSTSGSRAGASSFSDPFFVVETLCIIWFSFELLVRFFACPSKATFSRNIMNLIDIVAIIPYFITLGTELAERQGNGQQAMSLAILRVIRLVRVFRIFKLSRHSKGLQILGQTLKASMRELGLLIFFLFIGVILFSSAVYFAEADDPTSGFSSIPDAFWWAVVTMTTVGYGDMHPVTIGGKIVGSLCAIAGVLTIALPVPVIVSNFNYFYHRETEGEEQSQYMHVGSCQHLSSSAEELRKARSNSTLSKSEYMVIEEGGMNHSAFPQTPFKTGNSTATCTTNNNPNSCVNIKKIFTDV", "assay": "QPatch automated whole-cell patch-clamp, CHO cells stably expressing huKv1.3 (Example 8)", "settings": "Kv1.3 channels, IgG KnotBody, Table 11A", "method": "Knottin Kv 1.3 and ASIC1a blockers expressed in the KnotBody format (see examples 6 and 7) were tested for their ability to inhibit the function of the ion channel targets. The effect of these KnotBodies on cells expressing the human Kv 1.3 (huKv1.3) or human ASIC1a channels was assessed using QPatch automated whole-cell patch-clamp electrophysiology (Sophion).\nFor the testing of Kv1.3, CHO cells stably expressing huKv1.3 (Charles River Lab) were analysed using the QPatch electrophysiology assay in the presence or absence of the KnotBody fusions or the antibody isotypes (negative) controls. Internal and external physiological solutions were freshly prepared prior to the assay. The extracellular solution contained 145 mM NaCl, 4 mM KCl, 2 mM CaCl2, 1 mM MgCl2, 10 mM HEPES and 10 mM glucose; the pH was adjusted to 7.4 with NaOH; the osmolarity was ~ 305 mOsm/L. The intracellular solution contained: KF (120 mM), KCl (20 mM), HEPES (10 mM) and EGTA (10 mM); the pH was adjusted to 7.2 with KOH; osmolarity was ~ 320 mOsm/L.\nA series of depolarising voltage (channel activating) pulses were used to monitor the channel currents upon adding control (extracellular solution) to define a control baseline of current activity. To these measured control currents ascending concentrations of KnotBodies or parental antibody isotypes (control molecules) were applied to the external bathing solution (2.2 µM - 0.5 nM, diluted in the extracellular solution). KnotBodies KB_A12 and KB_A07 (EETI-II fusions) were used as isotype controls for the testing. From a holding voltage of -80 mV a depolarising, activating voltage pulses of +30 or +80 mV were applied for 300 ms, every 5 or 10 seconds. The elicited, maximum outward current values measured during the activating step for each solution exchange period were averaged (n = 3 - 8 for each concentration applied) and plotted as concentration-response curves. KB_A07_ShK, KB_A12_ShK and KB_A07_Kaliotoxin (KTX) fusion proteins all inhibited the huKv1.3 currents in a concentration dependent manner with IC50S of approximately 20 nM, 40 nM and 900 nM respectively."}, "human Kv1.3 (huKv1.3)": {"target": "T3, human Kv1.3 (huKv1.3) (Homo sapiens, UniProt P22001)", "T3 construct": "host or cells: CHO", "T3 sequence (P22001 whole entry)": "as above", "assay": "QPatch automated patch-clamp, CHO cells stably expressing human Kv1.3 (Examples 19-21)", "method": "The effect of these KnotBodies on cells expressing human Kv1.3 (huKv1.3) channel was assessed using the QPatch automated patch-clamp platform (Sophion, Ballerup, Denmark). For the testing of Kv1.3 ion channel currents, CHO cells stably expressing human Kv1.3 (GenBank accession number NM_002232.2; cell line catalogue number CT6133, Charles River Discovery, Cleveland, USA) were subjected to a QPatch electrophysiology assay in the presence or absence of the KnotBody fusions or the antibody isotypes (negative controls). Internal and external physiological solutions were freshly prepared prior to the assay. The extracellular solution contained 145 mM NaCl, 4 mM KC1, 2 mM CaC12, 1 mM MgC12, 10 mM HEPES and 10 mM glucose; the pH was adjusted to 7.4 with NaOH; the osmolarity was ~ 305 mOsm/L. The intracellular solution contained: KF (120 mM), KC1 (20 mM), HEPES (10 mM) EGTA (10 mM); the pH was adjusted to 7.2 with KOH; osmolarity was ~ 300 mOsm/L.\nas §2, with “(including” for “(including previously described”, “KB_A12_KTX as previously” for “KB_A12_KTX”, “+30 mV” for “+30”, “32).” for “33).”, “calculated.” for “calculated (see Table E20).”\nas §1, §2, §3"}}, "note": "Like-named read-outs stand apart in the source and are kept apart here."}
{"molecule": "B1", "values": [{"measurement": "IC50", "setting": "human Kv1.1 (huKv1.1)", "value": 4.8, "unit": "µM"}, {"measurement": "IC50", "setting": "huKv1.3", "value": "> 10", "unit": "µM"}, {"measurement": "Fold difference", "setting": "human Kv1.3 (huKv1.3); Kv1.1 IC50 over Kv1.3 IC50, Table E20", "value": 3}, {"measurement": "IC50", "setting": "human Kv1.3 (huKv1.3); four-point curves of FIG. 33, Table E20, read-out: Kv1.3 IC50", "value": 1.54, "unit": "µM"}, {"measurement": "IC50", "setting": "human Kv1.3 (huKv1.3); huKv1.3, four-point curves of FIG. 32, Table E19, read-out: IC50", "value": 0.43, "unit": "µM"}]}
